T1: NKp30 (Fc, R&D system 1849-NK-025) (UniProt O14931 19-138, limits assumed)
T1 construct: Bought Fc-tagged protein
T1 sequence (looked up): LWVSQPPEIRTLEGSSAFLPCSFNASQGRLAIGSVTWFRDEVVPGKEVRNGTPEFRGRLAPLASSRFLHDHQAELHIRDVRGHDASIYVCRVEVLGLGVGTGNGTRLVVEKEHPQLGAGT

T2: CD32a (Fc, R&D system 1330-CD-050) (UniProt P12318 36-218)
T2 sequence (looked up): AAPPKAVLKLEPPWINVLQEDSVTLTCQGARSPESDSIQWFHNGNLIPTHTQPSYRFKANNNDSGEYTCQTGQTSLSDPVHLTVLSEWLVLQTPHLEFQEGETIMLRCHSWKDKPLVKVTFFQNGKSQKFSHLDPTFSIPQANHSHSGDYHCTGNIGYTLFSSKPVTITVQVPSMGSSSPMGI

T3: NKG2D (Fc, R&D system 1299-NK-050) (UniProt P26718 78-216)
T3 construct: Bought Fc-tagged protein
T3 sequence (looked up): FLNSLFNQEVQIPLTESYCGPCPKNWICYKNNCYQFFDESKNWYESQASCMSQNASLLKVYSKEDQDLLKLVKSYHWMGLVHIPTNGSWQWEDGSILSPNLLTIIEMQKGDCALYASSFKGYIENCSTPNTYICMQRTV

T4: TIGIT (Fc, R&D system 9464-TG-050) (UniProt Q495A1 22-141)
T4 construct: Bought Fc-tagged protein
T4 sequence (looked up): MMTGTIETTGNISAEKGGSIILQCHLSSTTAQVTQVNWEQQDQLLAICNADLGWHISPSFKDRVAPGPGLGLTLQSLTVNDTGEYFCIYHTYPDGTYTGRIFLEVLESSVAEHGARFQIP

T5: NKp44 (Fc, R&D system 2249-NK-050) (UniProt O95944 22-190, limits assumed)
T5 construct: Bought Fc-tagged protein
T5 sequence (looked up): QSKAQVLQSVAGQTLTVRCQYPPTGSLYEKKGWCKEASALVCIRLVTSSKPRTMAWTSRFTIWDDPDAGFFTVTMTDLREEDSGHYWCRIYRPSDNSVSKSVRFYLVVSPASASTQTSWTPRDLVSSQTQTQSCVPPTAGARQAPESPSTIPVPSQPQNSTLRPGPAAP

T6: CD32b/c (Fc, R&D system 1875-CD-050) (UniProt P31994 46-217)
T6 sequence (looked up): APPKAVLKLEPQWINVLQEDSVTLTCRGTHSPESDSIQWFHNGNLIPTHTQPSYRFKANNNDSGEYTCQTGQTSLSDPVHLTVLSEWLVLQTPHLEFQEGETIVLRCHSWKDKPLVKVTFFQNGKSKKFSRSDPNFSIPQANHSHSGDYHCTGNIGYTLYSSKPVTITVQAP

B1: membrane-type a2DL1-DS11 scFv (scFv)
scFv: DYKDDDDKGSGEVQLVQSGAEVKKPGSSVKVSCKASGGTFSSYAISWVRQAPGQGLEWMGGIIPIFGTANYAQKFQGRVTITADESTSTAYMELSSLRSEDTAVYYCARGLRFFDYWGQGTLVTVSSGGGGSGGGGSGGGGSQSVLTQPPSASGTPGQRVTISCSGSSSNIGTNTVNWYQQFPGTAPKLLIYSNNQRPSGVPDRFSGSKSGTSGSLAISGLQSEDEADYYCAAWDDSLQGWLFGGGTKLTVLALSNSIMYFSHFVPVFLPAKPTTTPAPRPPTPAPTIASQPLSLRPEACRPAAGGAVHTRGLDFACDIYIWAPLAGTCGVLLLSLVITLYCNH
notes: On K562 cells
B2: membrane-type a2DL2/3-DS10 scFv (scFv)
scFv: DYKDDDDKGSGQVQLVQSGAEVKKPGSSVKVSCKASGGTFSSFAISWVRQAPGQGLEWMGGIIPIFGTANYAQKFQGRVTITADESTSTAYMELSSLRSEDTAVYYCARVSGTTGGYYYGMDVWGQGTLVTVSSGGGGSGGGGSGGGGSAIRMTQSPSSVSASVGDRVTITCRASQGIGNWLAWYQQKPGRAPKLLISTASSLQSGVPSRFSGGGSGRGFTLTISSLQLEDFATYYCQQSYITPWTFGQGTKVEIKALSNSIMYFSHFVPVFLPAKPTTTPAPRPPTPAPTIASQPLSLRPEACRPAAGGAVHTRGLDFACDIYIWAPLAGTCGVLLLSLVITLYCNH
notes: On K562 cells; also called a2DL2/3-DS10 WT scFv
B3: membrane-type a2DL2/3-DS4 scFv (scFv)
scFv: DYKDDDDKGSGEVQLVQSGAEVKKPGSSVKVSCKASGGTFSSYAISWVRQAPGQGLEWMGGIIPIFGTANYAQKFQDRVTITADKSTSTAYMELSSLRSEDTAVYYCARGSRNFDYWGQGTLVTVSSGGGGSGGGGSGGGGSAIRMTQSPSSLSASVGDRVTIPCRASQSIGSYLNWYQQKPGKAPNLLIYAASSLQSGVPSRFSGSGSGTDFTLTISSLQPEDFATYYCQQSYSTPLTFGGGTKVDIKALSNSIMYFSHFVPVFLPAKPTTTPAPRPPTPAPTIASQPLSLRPEACRPAAGGAVHTRGLDFACDIYIWAPLAGTCGVLLLSLVITLYCNH
notes: On K562 cells
B4: membrane-type a2DL1-DS1 scFv (scFv)
scFv: DYKDDDDKGSGQVQLQQSGPELVRASQTLSLTCAISGDSVSSNSATWNWIRQSPSRGLEWLGRTYYRSKWYNDYAVSVKSRITINPDTSKNQFSLQLNSVTPEDTAVYYCARDSPSYGRGVFDIWGQGTLVTVSSGGGGSGGGGSGGGGSDIVMTQSPDSLAVSLGERATINCKSSQSVLYSSNNKNYLAWYQQKPGQPPKLLIYWASTRESGVPDRFSGSGSGTDFTLTISSLQAEDVAVYYCQQYYSPPYTFGQGTKLEIKALSNSIMYFSHFVPVFLPAKPTTTPAPRPPTPAPTIASQPLSLRPEACRPAAGGAVHTRGLDFACDIYIWAPLAGTCGVLLLSLVITLYCNH
notes: On K562 cells

Legend:
[1] = biological target: T7, recombinant KIR2DL1 (extracellular domain-Fc-Avi, in-house) (human); experiment: flow cytometry, KIR-Fc 0.1 µM on scFv-K562 cells
T7 construct: IL-2 signal peptide left out; also called soluble KIR2DL1

[2] = biological target: T1, NKp30 (Fc, R&D system 1849-NK-025); experiment: flow cytometry, tagged protein on scFv-K562 cells
[3] = biological target: T8, KIR3DL1 (Fc, R&D system 1225-KR-050) (UniProt P43629 22-340); experiment: flow cytometry, tagged protein on scFv-K562 cells
T8 construct: Bought Fc-tagged protein

[4] = biological target: T9, NKG2A (Fc, R&D system 10511-NK-050) (UniProt P26715 94-233, limits assumed); experiment: flow cytometry, tagged protein on scFv-K562 cells
T9 construct: Bought Fc-tagged protein

[5] = biological target: T2, CD32a (Fc, R&D system 1330-CD-050); experiment: flow cytometry, tagged protein on scFv-K562 cells
[6] = biological target: T10, NKp46 (Fc, R&D system 1850-NK-025) (UniProt O76036 22-258, limits assumed); experiment: flow cytometry, tagged protein on scFv-K562 cells
T10 construct: Bought Fc-tagged protein

[7] = biological target: T3, NKG2D (Fc, R&D system 1299-NK-050); experiment: flow cytometry, tagged protein on scFv-K562 cells
[8] = biological target: T11, LILRB2 (His, R&D system 8429-T4-050) (UniProt Q8N423 22-458); experiment: flow cytometry, tagged protein on scFv-K562 cells
T11 construct: Bought His-tagged protein

[9] = biological target: T4, TIGIT (Fc, R&D system 9464-TG-050); experiment: flow cytometry, tagged protein on scFv-K562 cells
[10] = biological target: T5, NKp44 (Fc, R&D system 2249-NK-050); experiment: flow cytometry, tagged protein on scFv-K562 cells
[11] = biological target: KIR2DS3 (Fc, prepared in-house) (UniProt Q14952 22-245, limits assumed); experiment: flow cytometry, tagged protein on scFv-K562 cells
[12] = biological target: T12, KIR3DL3 (Fc, R&D system 10104-KR-050) (UniProt Q8N743 26-322, limits assumed); experiment: flow cytometry, tagged protein on scFv-K562 cells
T12 construct: Bought Fc-tagged protein

[13] = biological target: T6, CD32b/c (Fc, R&D system 1875-CD-050); experiment: flow cytometry, tagged protein on scFv-K562 cells
[14] = biological target: T13, recombinant human KIR3DS1/CD158e2 Fc chimera protein (4136-KR-050, R&D Systems) (human, UniProt Q14943 22-340, limits assumed); experiment: flow cytometry, tagged protein on scFv-K562 cells
T13 construct: Bought Fc chimera; also called soluble KIR3DS1; recombinant KIR3DS1

[15] = biological target: T14, NKG2C (Fc, R&D system 138-NK-050) (UniProt P26717 94-231, limits assumed); experiment: flow cytometry, tagged protein on scFv-K562 cells
T14 construct: Bought Fc-tagged protein

[16] = biological target: CD64 (Fc, R&D system 1257-FC-050) (UniProt P12314 16-288); experiment: flow cytometry, tagged protein on scFv-K562 cells
[17] = biological target: T15, CD161 (Fc, R&D system 7448-CD-050) (UniProt Q12918 67-225); experiment: flow cytometry, tagged protein on scFv-K562 cells
T15 construct: Bought Fc-tagged protein

[18] = biological target: T16, KIR2DL1 (Fc, R&D system 1844-KR-050) (UniProt P43626 22-245); experiment: flow cytometry, tagged protein on scFv-K562 cells
T16 construct: Bought Fc-tagged protein

[19] = biological target: T17, KIR2DL5 (Fc, R&D system 6634-KR-050) (UniProt Q8N109 22-238, limits assumed); experiment: flow cytometry, tagged protein on scFv-K562 cells
T17 construct: Bought Fc-tagged protein

[20] = biological target: CD16a (Fc, R&D system 4325-FC-050) (UniProt P08637 17-208); experiment: flow cytometry, tagged protein on scFv-K562 cells
[21] = biological target: T18, KIR2DL4 (Fc, R&D system 2238-KR-050) (UniProt Q99706 24-242, limits assumed); experiment: flow cytometry, tagged protein on scFv-K562 cells
T18 construct: Bought Fc-tagged protein

[22] = biological target: T19, NKG2E (Fc, R&D system 9759-NK-050) (UniProt Q07444 94-240, limits assumed); experiment: flow cytometry, tagged protein on scFv-K562 cells
T19 construct: Bought Fc-tagged protein

[23] = biological target: T20, LILRB1 (Fc, R&D system 2017-T2-050) (UniProt Q8NHL6 24-458); experiment: flow cytometry, tagged protein on scFv-K562 cells
T20 construct: Bought Fc-tagged protein

[24] = biological target: CD16b (Fc, R&D system 1597-FC-050) (UniProt O75015 17-200, limits assumed); experiment: flow cytometry, tagged protein on scFv-K562 cells
[25] = biological target: T21, recombinant KIR2DS2 (extracellular domain-Fc-Avi, in-house) (human); experiment: flow cytometry, KIR-Fc on scFv-K562 cells
T21 construct: In-house; IL-2 signal peptide left out; also called soluble KIR2DS2

[26] = biological target: T22, recombinant KIR2DS4 (extracellular domain-Fc-Avi, in-house) (human); experiment: flow cytometry, KIR-Fc on scFv-K562 cells
T22 construct: In-house; IL-2 signal peptide left out; also called soluble KIR2DS4

[27] = biological target: T23, recombinant KIR2DS1 (extracellular domain-Fc-Avi, in-house) (human); experiment: flow cytometry, KIR-Fc on scFv-K562 cells
T23 construct: In-house; IL-2 signal peptide left out; also called soluble KIR2DS1
T23 sequence (chain, as listed by the source): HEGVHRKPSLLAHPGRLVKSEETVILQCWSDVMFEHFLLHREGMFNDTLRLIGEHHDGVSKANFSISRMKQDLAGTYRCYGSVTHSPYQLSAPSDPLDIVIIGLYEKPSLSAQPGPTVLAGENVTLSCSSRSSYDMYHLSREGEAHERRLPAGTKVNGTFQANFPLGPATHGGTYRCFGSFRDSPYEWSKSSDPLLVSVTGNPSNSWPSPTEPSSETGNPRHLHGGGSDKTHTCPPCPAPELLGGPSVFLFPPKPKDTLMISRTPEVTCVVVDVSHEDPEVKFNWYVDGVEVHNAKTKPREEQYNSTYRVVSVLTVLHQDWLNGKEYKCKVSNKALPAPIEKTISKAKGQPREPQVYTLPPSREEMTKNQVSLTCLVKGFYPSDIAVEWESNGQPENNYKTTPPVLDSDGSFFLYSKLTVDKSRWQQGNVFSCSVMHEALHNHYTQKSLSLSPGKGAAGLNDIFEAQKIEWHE

T19 sequence (Q07444 94-240 limits assumed): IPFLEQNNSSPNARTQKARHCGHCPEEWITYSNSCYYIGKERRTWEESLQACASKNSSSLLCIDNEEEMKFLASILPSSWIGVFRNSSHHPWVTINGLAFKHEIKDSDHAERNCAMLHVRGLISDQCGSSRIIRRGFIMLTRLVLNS
Sequence of CD16a (Fc, R&D system 4325-FC-050) (P08637 17-208 limits assumed): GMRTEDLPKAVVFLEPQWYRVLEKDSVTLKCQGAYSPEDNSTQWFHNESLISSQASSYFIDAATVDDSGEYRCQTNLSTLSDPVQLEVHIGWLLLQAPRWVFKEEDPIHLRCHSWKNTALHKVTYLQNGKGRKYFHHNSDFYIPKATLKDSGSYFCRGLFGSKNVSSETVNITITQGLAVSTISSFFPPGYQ
T14 sequence (P26717 94-231 limits assumed): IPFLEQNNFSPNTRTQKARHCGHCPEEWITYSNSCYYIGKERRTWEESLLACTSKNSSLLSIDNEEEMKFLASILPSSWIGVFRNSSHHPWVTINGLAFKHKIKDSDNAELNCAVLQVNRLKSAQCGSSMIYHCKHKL
T12 sequence (Q8N743 26-322 limits assumed): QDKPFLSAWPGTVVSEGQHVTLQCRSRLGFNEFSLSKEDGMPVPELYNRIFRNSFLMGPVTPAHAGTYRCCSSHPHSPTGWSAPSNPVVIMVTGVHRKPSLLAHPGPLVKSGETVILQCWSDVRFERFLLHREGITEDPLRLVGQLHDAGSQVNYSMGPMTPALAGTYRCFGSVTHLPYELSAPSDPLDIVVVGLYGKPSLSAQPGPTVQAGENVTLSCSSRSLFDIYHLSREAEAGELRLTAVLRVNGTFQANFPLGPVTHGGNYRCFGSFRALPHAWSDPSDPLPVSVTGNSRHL
Sequence of KIR2DS3 (Fc, prepared in-house) (Q14952 22-245 limits assumed): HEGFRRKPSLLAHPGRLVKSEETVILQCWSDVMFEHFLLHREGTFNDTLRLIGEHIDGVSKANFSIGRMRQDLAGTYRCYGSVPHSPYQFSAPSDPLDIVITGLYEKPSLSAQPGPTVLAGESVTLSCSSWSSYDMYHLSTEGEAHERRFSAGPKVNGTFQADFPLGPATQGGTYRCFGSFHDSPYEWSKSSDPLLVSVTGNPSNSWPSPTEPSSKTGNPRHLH
T8 sequence (P43629 22-340 limits assumed): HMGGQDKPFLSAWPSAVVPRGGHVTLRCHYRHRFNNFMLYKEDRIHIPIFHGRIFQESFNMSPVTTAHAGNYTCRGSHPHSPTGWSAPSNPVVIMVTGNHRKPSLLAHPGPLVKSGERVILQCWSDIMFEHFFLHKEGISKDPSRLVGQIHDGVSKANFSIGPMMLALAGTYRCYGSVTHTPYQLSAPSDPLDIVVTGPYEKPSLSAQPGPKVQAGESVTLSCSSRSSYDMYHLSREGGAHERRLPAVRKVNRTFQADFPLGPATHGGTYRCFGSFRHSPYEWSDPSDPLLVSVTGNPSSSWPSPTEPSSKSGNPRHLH
T20 sequence (Q8NHL6 24-458 limits assumed): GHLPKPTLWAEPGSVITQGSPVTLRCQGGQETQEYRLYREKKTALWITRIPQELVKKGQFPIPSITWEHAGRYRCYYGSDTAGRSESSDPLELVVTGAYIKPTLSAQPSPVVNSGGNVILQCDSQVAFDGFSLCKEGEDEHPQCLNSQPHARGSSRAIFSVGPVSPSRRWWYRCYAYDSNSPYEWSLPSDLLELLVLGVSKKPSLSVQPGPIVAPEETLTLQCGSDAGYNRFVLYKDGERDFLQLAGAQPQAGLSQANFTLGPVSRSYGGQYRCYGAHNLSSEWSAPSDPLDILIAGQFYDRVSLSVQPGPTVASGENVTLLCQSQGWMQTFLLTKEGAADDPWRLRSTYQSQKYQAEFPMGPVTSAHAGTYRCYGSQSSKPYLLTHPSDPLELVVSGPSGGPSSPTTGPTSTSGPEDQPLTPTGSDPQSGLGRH
T21 sequence (chain, as listed by the source): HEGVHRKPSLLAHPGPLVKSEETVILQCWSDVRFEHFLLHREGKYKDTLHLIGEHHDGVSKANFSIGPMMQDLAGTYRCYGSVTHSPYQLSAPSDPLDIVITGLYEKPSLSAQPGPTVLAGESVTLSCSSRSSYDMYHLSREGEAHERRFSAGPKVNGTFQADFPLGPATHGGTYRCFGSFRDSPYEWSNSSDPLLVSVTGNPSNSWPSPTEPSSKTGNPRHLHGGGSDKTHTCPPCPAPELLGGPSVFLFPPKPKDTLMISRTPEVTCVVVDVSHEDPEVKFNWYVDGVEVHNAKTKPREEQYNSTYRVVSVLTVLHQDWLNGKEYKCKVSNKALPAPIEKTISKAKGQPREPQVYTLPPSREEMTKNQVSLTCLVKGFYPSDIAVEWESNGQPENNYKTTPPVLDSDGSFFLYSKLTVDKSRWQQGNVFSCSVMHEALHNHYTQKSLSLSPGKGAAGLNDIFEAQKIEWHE
T11 sequence (Q8N423 22-458 limits assumed): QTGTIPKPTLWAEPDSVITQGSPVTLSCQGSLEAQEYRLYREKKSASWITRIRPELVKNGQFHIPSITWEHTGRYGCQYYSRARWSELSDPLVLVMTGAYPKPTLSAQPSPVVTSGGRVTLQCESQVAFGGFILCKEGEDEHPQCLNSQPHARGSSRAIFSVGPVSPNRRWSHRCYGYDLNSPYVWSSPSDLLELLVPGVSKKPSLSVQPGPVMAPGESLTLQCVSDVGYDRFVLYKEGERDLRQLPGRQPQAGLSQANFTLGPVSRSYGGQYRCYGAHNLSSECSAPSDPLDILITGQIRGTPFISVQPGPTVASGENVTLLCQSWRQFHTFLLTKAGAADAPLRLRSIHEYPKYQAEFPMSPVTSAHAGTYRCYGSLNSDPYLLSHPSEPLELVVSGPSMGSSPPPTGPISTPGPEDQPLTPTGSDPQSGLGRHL
T22 sequence (chain, as listed by the source): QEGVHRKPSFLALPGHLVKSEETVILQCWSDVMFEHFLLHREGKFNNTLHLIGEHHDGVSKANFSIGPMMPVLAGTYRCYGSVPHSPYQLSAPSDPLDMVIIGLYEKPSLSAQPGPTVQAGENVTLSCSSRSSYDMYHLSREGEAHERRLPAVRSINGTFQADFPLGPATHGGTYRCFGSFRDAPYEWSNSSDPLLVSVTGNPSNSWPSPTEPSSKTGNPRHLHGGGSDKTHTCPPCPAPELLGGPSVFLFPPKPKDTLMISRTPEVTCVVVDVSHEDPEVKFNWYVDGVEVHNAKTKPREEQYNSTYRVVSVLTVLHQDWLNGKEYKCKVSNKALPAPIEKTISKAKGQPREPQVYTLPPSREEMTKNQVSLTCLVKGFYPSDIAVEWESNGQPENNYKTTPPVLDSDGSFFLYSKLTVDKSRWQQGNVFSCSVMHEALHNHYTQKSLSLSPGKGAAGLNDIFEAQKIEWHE
T13 sequence (Q14943 22-340 limits assumed, change not shown): as the sequence (P43629 22-340 limits assumed) above, with I47V, S58G, V92M, K136R, G138W, P163S, L166R, P199L, P315L counted along it
Sequence of CD16b (Fc, R&D system 1597-FC-050) (O75015 17-200 limits assumed): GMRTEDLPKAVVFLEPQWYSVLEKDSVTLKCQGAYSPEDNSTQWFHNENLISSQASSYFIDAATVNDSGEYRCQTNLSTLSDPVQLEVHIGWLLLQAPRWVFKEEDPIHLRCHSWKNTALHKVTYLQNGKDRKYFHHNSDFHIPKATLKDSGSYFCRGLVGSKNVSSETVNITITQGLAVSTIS
T18 sequence (Q99706 24-242 limits assumed): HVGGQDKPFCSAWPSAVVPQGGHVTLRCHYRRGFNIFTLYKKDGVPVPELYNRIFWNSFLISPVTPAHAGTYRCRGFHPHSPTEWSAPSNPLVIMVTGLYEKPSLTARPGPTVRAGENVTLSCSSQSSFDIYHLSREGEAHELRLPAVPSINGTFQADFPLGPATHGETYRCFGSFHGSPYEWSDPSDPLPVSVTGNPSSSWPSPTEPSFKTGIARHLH
T16 sequence (P43626 22-245 limits assumed): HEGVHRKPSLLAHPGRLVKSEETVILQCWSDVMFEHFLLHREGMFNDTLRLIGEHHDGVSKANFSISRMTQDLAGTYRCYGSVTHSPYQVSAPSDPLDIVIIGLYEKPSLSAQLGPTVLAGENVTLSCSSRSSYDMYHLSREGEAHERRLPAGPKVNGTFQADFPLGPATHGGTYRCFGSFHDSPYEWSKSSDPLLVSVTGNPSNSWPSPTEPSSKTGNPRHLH
T17 sequence (Q8N109 22-238 limits assumed): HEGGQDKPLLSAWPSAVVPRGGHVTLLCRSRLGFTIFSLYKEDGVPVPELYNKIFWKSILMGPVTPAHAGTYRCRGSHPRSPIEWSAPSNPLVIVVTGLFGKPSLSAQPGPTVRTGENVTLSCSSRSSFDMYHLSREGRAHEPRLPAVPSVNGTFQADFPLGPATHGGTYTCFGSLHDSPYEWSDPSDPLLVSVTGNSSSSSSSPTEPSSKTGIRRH

Binder	binding result [1]	binding result [2]	binding result [3]	binding result [4]	binding result [5]	binding result [6]	binding result [7]	binding result [8]	binding result [9]	binding result [10]	binding result [11]	binding result [12]	binding result [13]	binding result [14]	binding result [15]	binding result [16]	binding result [17]	binding result [18]	binding result [19]	binding result [20]	also measured
B1	binds																				
B2		no binding (tested: 0.1 µM)	no binding (tested: 0.1 µM)	no binding (tested: 0.1 µM)	no binding (tested: 0.1 µM)	no binding (tested: 0.1 µM)	no binding (tested: 0.1 µM)	no binding (tested: 0.1 µM)	no binding (tested: 0.1 µM)	no binding (tested: 0.1 µM)	no binding (tested: 0.1 µM)	no binding (tested: 0.1 µM)	no binding (tested: 0.1 µM)	no binding (tested: 0.1 µM)	no binding (tested: 0.1 µM)	no binding (tested: 0.1 µM)	no binding (tested: 0.1 µM)	no binding (tested: 0.1 µM)	no binding (tested: 0.1 µM)	no binding (tested: 0.1 µM)	binding result [21]: no binding (tested: 0.1 µM); binding result [22]: no binding (tested: 0.1 µM); binding result [23]: no binding (tested: 0.1 µM); binding result [24]: no binding (tested: 0.1 µM); binding result [25]: no binding (tested: 0.1 µM); binding result [26]: no binding (tested: 0.1 µM); binding result [27]: no binding (tested: 0.1 µM)
B3		no binding (tested: 0.1 µM)	no binding (tested: 0.1 µM)	no binding (tested: 0.1 µM)	no binding (tested: 0.1 µM)	no binding (tested: 0.1 µM)	no binding (tested: 0.1 µM)	no binding (tested: 0.1 µM)	no binding (tested: 0.1 µM)	no binding (tested: 0.1 µM)	no binding (tested: 0.1 µM)	no binding (tested: 0.1 µM)	no binding (tested: 0.1 µM)	no binding (tested: 0.1 µM)	no binding (tested: 0.1 µM)	no binding (tested: 0.1 µM)	no binding (tested: 0.1 µM)	no binding (tested: 0.1 µM)	no binding (tested: 0.1 µM)	no binding (tested: 0.1 µM)	binding result [21]: no binding (tested: 0.1 µM); binding result [22]: no binding (tested: 0.1 µM); binding result [23]: no binding (tested: 0.1 µM); binding result [24]: no binding (tested: 0.1 µM); binding result [25]: no binding (tested: 0.1 µM); binding result [26]: no binding (tested: 0.1 µM); binding result [27]: no binding (tested: 0.1 µM)
B4	binds																				

— patent publication EP4610277A1 (Daiichi Sankyo Company, Limited, dated 2025)
